Experimental findings from PMC11519228, “Sugar alcohol degradation in Archaea: uptake and degradation of mannitol and sorbitol in Haloarcula hispanica” (Extremophiles, 2024) are described below.

Data set [1] has as its target ketohexokinase (KHK) from Haloarcula marismortui (Haloarcula marismortui). Put plainly: SEC; native molecular mass on a size exclusion column (superdex HiLoad 16/600 200 pg) calibrated with proteins from the HMW and LMW kits; purified His-tagged enzyme. Background: Size exclusion chromatography separates by hydrodynamic size, large species first.
Substrate in data set [2]: Nc1ncnc2c1ncn2[C@@H]1O[C@H](COP(=O)(O)OP(=O)(O)OP(=O)(O)O)[C@@H](O)[C@H]1O
The experiment in a line: coupled pyruvate kinase / lactate dehydrogenase photometric assay, Michaelis-Menten fit. Type of data set: biochemical, Haloarcula marismortui. The following applies: 100 mM Tris-HCl, 1.5 M KCl, pH 7.5, 20 mM fructose, 10 mM MgCl2, 37 °C.

Substrate in data set [3]: NC(=O)c1ccc[n+]([C@@H]2O[C@H](COP(=O)(O)OP(=O)(O)OC[C@H]3O[C@@H](n4cnc5c(N)ncnc54)[C@H](O)[C@@H]3O)[C@@H](O)[C@H]2O)c1
The experiment in a line: photometric NADH assay, Michaelis-Menten fit. Type of data set: biochemical, Haloarcula hispanica. The following applies: 50 mM Tris-HCl, 1.5 M KCl, 37 °C, varied: cofactor.

Substrate in data set [4]: OC[C@@H](O)[C@@H](O)[C@H](O)[C@@H](O)CO
Put plainly: photometric NADH assay, Michaelis-Menten fit. Type of data set: biochemical, Haloarcula hispanica. The note with it: 50 mM Tris-HCl, 1.5 M KCl, 37 °C.

Substrate in data set [5]: OC[C@@H](O)[C@@H](O)[C@H](O)[C@H](O)CO
The experiment in a line: photometric NADH assay, Michaelis-Menten fit. The note with it: 50 mM Tris-HCl, 1.5 M KCl, pH 7.5, 1 mM MnCl2, 1 mM NAD+, 37 °C. The class given is biochemical, Haloarcula hispanica.

Substrate in data set [6]: Nc1ncnc2c1ncn2[C@@H]1O[C@H](COP(=O)(O)OP(=O)(O)OP(=O)(O)O)[C@@H](O)[C@H]1O
The experiment in a line: coupled pyruvate kinase / lactate dehydrogenase photometric assay, Michaelis-Menten fit. The following applies: 50 mM Tris-HCl, 1.5 M KCl, pH 7.5, 4 mM fructose-1-phosphate, 10 mM MgCl2, 37 °C. Type of data set: biochemical, Haloarcula hispanica.

Data set [7] deals with the molecule itself. Put plainly: SEC; native molecular mass on a size exclusion column (superdex HiLoad 16/600 200 pg) calibrated with proteins from the HMW and LMW kits; purified His-tagged enzyme.

As usually defined, the stoichiometry N is a count of units in the complex or per binding partner. In data set [1], “ketohexokinase (KHK) from Haloarcula marismortui (enzyme)” displayed a stoichiometry N of 2.

B1: KHK (Haloarcula marismortui ATCC 43049) (protein)
chain: MDEETRRAVATADEALPTSDALPDAIDTGRVVFGFDGYLDRVREVVADRIDPESHERLATLESFGDRIDRSVAADSSLSFEWLQQGSRTGGHTSHLARAFGGWSFDPVMVGMYGDPVHDAFETEFGEYELHSLGEPGVTDAVEFDDGKLMLTEIGDTMSLDWAELDTAFGHDRLAEKLDGASLLGTGYWSETPDLPTVFDGLRTLWDGIDDPPETVLVDPGDVRKLDADRLRAGREAIGRLDEVTDVVVTSNRAETGVLADAYAGDAERSFADDAEAVFEALEPTWFVGHGVEQSVVVTAAGTDSVAVPSVSDPELTTSSGDHFNAGLGLARIADLSPAAAVVVGNAVAGYFVRTADQPSLADVRAFVDEYLEKF
notes: full-length gene from genomic DNA, N-terminal 6xHis tag, expressed in Haloferax volcanii H1209 (pTA963)
What is called Km is the concentration of substrate that gives half-maximal velocity. On to B1, for which the Km in data set [2] is 1290 ± 120 µM.

B2: SorDH (Haloarcula hispanica ATCC 33960) (protein)
chain: MRTAVLVEPNEFELEDRPRPSPGPDDVLVAVRDVGICGSDVHYYEHGRIGDYVVEDPLVLGHESAGEVVEVGENVTHHEPGDRVALEPGVPCRRCAHCKRGDYHLCEEVTFMATPPHDGAFTEYVSWPADFAYTLPEAVSTAEGALCEPLSVGIHACRRGSVGTGDTVLITGAGPIGLMVLEAARAAGATDVILTDVVDEKLTFAEERGADLTVNVTETDLDAAVAEYTDGVGADVVVEASGAEPSIKSTIDVVRRGGTVVLVGLASEAEVPIDVLELIDNEVDVHGSFRYKNTYDAAVDLLADGEVDVEGIIDFESELEDIDDAFRRAMEPTVVKGMISLDS
notes: full-length gene from genomic DNA, N-terminal 6xHis tag, expressed in Haloferax volcanii H1209 (pTA963), Ni-NTA and size exclusion
Regarding B2, the Km came to 1200 ± 350 µM in data set [3] (pH 7.5, 1 mM MnCl2, 15 mM sorbitol) and 14700 ± 7800 µM in data set [4] (pH 7.5, 1 mM MnCl2, 2 mM NAD+).

B3: MtlDH (Haloarcula hispanica ATCC 33960) (protein)
chain: MRASTLTDVGEITVEERDRPDPADDEVLVQVGACSVCMTDYHMYHGTFAAETPLVLGHEGAGTVAEVGADVEGFAVGDRVAINPTVPCNACSYCKKGETHLCENNTSIGGAGDTILDGAFAEYVRVPAINVEDIGEMSFERAALAEPLACCVHGVEQTDIKPGDSVGIIGAGPIGLLLLQAFRNAGAAPIVVSELDDERRELAADLGADAVVDPNEEDPEEAICAAAGGPVDVGAEAIGLVPTIKQANAVTASGGSTLIFGVPDQEATMEISPFDVFFDEVDYRGSFSLTTEDFERAITLLRHERIDAETLITERIGLDDLPTAFERMGNAEGLKKVVVPGDSE
notes: as for B2
Regarding B3, the Km in data set [3] (pH 7.5, 1 mM MnCl2, 10 mM mannitol) stood at 420 ± 30 µM; in data set [4] (pH 7.5, 1 mM MnCl2, 1 mM NAD+, sorbitol up to 100 mM) it was 27600 ± 2660 µM; in data set [5], 2600 ± 270 µM.

B4: fructose-1-phosphate kinase (1-PFK) from Haloarcula hispanica (enzyme, UniProt G0HX83 1-302, looked up)
chain: MIVTVTYNPAVDQTIQFDEQMAPDRVMRADEAQFDAGGKGINAAQFLTAMDRPCVATGLLGGFTGSFIRETLQDDGVETAFVDVDGTTRLNTTAIAAAGEYKLNQAGPTVGESVVDALLEQVRAQSPDRVLIGGSLPPGLSPNAIDRIAAGGDWETIVDTGGDVLRELDAQYGLCKPNRAELGDATGADVSTVEGCADAADAFRDRGFDRVLASLGADGAVLVGDTGRLYAEALDINVVDTVGAGDALLSGVLSAWEAGADDETALRTGVAVSSQVVQRAGTAVPDLNDIGSLRDGVTVRQL
notes: fructose-1-phosphate kinase of Haloarcula hispanica, gene fruK (HAH_1077), amplified from genomic DNA; subunits of 31.2 kDa; The gene was cloned into pTA963 with 6 x CAC fused to its 5' end (N-terminal 6 x His tag); also called F1P kinase; fruK; not shown: His6, N-terminal, kept
For B4, the Km in data set [6] stood at 60 ± 4 µM. The “stoichiometry N” value in data set [7] turned out to be 2.
